Data: publication PMC11107202, “Hypothiocyanous acid reductase is critical for host colonization and infection by Streptococcus pneumoniae” (The Journal of Biological Chemistry, 2024)

Experiments:
[1] = test system: N#CSO; assay: purified protein; settings: 200 μM NADH, 10 nM 6-His-tagged Har, 100 mM sodium phosphate pH 7, 25 °C, HOSCN 1-50 μM
[2] = target: hypothiocyanous acid reductase (Har) (Streptococcus pneumoniae); assay: AUC; sedimentation velocity; Har at 2 uM and 20 uM in 20 mM Tris-HCl pH 8.0, 150 mM NaCl; 50,000 rpm, 20 °C; 2DSA and genetic algorithm analysis in UltraScan 4.0
[3] = target: T1, Har (Streptococcus pneumoniae, UniProt A0A0H2ZMK9); assay: X-ray crystal structure, […] Å; format: binding; settings: tag-cleaved Har; 2.4 M sodium malonate pH 7.0, 20 °C
T1 construct: gene SPD_1415; full length, 438 residues; E. coli BL21(DE3), pET28a; N-terminal 6-His tag kept for kinetics, cut by HRV-3C for crystals (4-residue scar); motif CXXXXC (C43, C48), K13, K16, H425, E430

For Har (Streptococcus pneumoniae D39), the Km [1] was 3.8 ± 0.3 µM and the kcat [1] was 440 ± 10 s⁻¹.

“hypothiocyanous acid reductase (Har) (enzyme)” gave a stoichiometry N [2] of 2.

In the case of `Cc1cc2nc3c(=O)[nH]c(=O)nc-3n(C[C@H](O)[C@H](O)[C@H](O)COP(=O)(O)OP(=O)(O)OC[C@H]3O[C@@H](n4cnc5c(N)ncnc54)[C@H](O)[C@@H]3O)c2cc1C` [FAD], the “X-ray crystal structure, 1.50 Å” value [3] is reported as “first crystal structure of full-length Har”.
